The source of these data is patent publication US20120164659A1 (NEXIGEN, published 2012).

Experiment [1] has as its target T1, Sos-2xSpc-Vif fusion protein (negative control target protein, expressed from pADH-Sos-2xSpc-vif).
T1 construct: Heterologous control bait in cdc25-2 yeast; also called Sos-Vif; SOS-Vif
Kind of experiment: Sos recruitment system in cdc25-2 yeast, growth at 37 C on galactose (FIG. 2 row B: GBP2+Sos-Vif).

For experiment [2], the target named is T1, Sos-2xSpc-Vif fusion protein (negative …). Description: Sos recruitment system in cdc25-2 yeast, growth at 37 C on galactose (FIG. 2 row D: MARCH7+SOS-Vif).

B1: Interferone-induced guanylate binding protein-2 (GBP2), prey fusion with myristoylation signal from the human hepatocyte cDNA library (other)
chain: MAPEINLPGPMSLIDNTKGQLVVNPEALKILSAITQPVVVVAIVGLYRTGKSYLMNKLAGKKNGFSLGSTVKSHTKGIWMWCVPHPKKPEHTLVLLDTEGLGDIEKGDNENDSWIFALAILLSSTFVYNSMGTINQQAMDQLHYVTELTDRIKANSSPGNNSVDDSADFVSFFPAFVWTLRDFTLELEVDGEPITADDYLELSLKLRKGTDKKSKSFNDPRLCIRKFFPKRKCFVFDWPAPKKYLAHLEQLKEEELNPDFIEQVAEFCSYILSHSNVKTLSGGIPVNGPRLESLVLTYVNAISSGDLPCMENAVLALAQIENSAAVEKAIAHYEQQMGQKVQLPTETLQELLDLHRDSEREAIEVFMKNSFKDVDQMFQRKLGAQLEARRDDFCKQNSKASSDCCMALLQDIFGPLEEDVKQGTFSKPGGYRLFTQKLQELKNKYYQVPRKGIQAKEVLKKYLESKEDVADALLQTDQSLSEKEKAIEVERIKAESAEAAKKMLEEIQKKNEEMMEQKEKSYQEHVKQLTEKMERDRAQLMAEQEKTLALKLQEQERLLKEGFENESKRLQKDIWDIQMRSKSLEPICNIL
modifications: myristoylation signal at the N-terminus (membrane localisation)
notes: also called NM-004120; not shown: myristoylation signal of the pmyr library vector
For the molecule B1, the binding result in experiment [1] was “no binding”.

B2: membrane-associated Ring-finger 7 (MARCH7), prey fusion with myristoylation signal from the human hepatocyte cDNA library (other)
chain: MESKPSRIPRRISVQPSSSLSARMMSGSRGSSLNDTYHSRDSSFRLDSEYQSTSASASASPFQSAWYSESEITQGARSRSQNQQRDHDSKRPKLSCTNCTTSAGRNVGNGLNTLSDSSWRHSQVPRSSSMVLGSFGTDLMRERRDLERRTDSSISNLMDYSHRSGDFTTSSYVQDRVPSYSQGARPKENSMSTLQLNTSSTNHQLPSEHQTILSSRDSRNSLRSNFSSRESESSRSNTQPGFSYSSSRDEAPIISNSERVVSSQRPFQESSDNEGRRTTRRLLSRIASSMSSTFFSRRSSQDSLNTRSLNSENSYVSPRILTASQSRSNVPSASEVPDNRASEASQGFRFLRRRWGLSSLSHNHSSESDSENFNQESEGRNTGPWLSSSLRNRCTPLFSRRRREGRDESSRIPTSDTSSRSHIFRRESNEVVHLEAQNDPLGAAANRPQASAASSSATTGGSTSDSAQGGRNTGISGILPGSLFRFAVPPALGSNLTDNVMITVDIIPSGWNSADGKSDKTKSAPSRDPERLQKIKESLLLEDSEEEEGDLCRICQMAAASSSNLLIEPCKCTGSLQYVHQDCMKKWLQAKINSGSSLEAVTTCELCKEKLELNLEDFDIHELHRAHANEQAEYEFISSGLYLVVLLHLCEQSFSDMMGNTNEPSTRVRFINLARTLQAHMEDLETSEDDSEEDGDHNRTFDIA
modifications: myristoylation signal at the N-terminus (membrane localisation)
notes: also called axotrophin; membrane-associated RING-CH protein VII; not shown: myristoylation signal of the pmyr library vector
In the case of B2, the binding result in experiment [2] is “no binding”.
